# In PMC4395007:
# Molecular target: BG505 SOSIP.664 gp140 trimer (HIV-1) (UniProt Q2N0S6)
# Test: negative-stain electron microscopy
substance,measurement,value
CAP256-VRC26.09 Fab,stoichiometry N (Fab per trimer),1
